The values that follow come from paper PMC11882435, “Thermodynamic modeling of RsmA - mRNA interactions capture novel direct binding across the Pseudomonas aeruginosa transcriptome”.

This data set has as its target RsmA (Pseudomonas aeruginosa, UniProt O69078 1-61). The data set can be described thus: filter binding; affinity unchanged vs WT; Filter binding: 10 mM Tris-HCl pH 7.5, 100 mM KCl, 10 mM MgCl2, 10 mM DTT, 10 ug/mL heparin, RNase inhibitor, 0.5 nM RNA, 37 C 30 min; Hill coefficient 2. To be noted: protein: recombinant; expressed in E. coli BL21; chain copies: 2; label: 5'-32P.

RsmA, sequence (O69078 whole entry): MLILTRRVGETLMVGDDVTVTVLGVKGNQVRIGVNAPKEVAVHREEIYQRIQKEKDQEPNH

B1: rsaL BS1 mutant (ssRNA)
RNA: GGGAUAAUAAACGUCCGAAAAGAUCAGAGCAAUGGCUUCACACGAGAGAACACAGCCCCAAAACAUGGCCUUCCGGGCAAAGGCCACCCGCACCGCCCGCACUGAAAGCCAGGAAACUUUCUGGAGCCGCU
Consider B1, for which the binding result is given as “binds”.

B2: rsaL BS2 mutant (ssRNA)
RNA: GGGAUAAUAAACGUCCGAAAAGAUCAGAGCAAUGGCUUCACACGAGAGAACACAGCCCCAAAACAUGGCCUUCCGGGCAAAGGCCACCCGCACCGCCCGACGGGAAAGCCAUACAACUUUCUGGAGCCGCU
On to B2, for which the binding result is “binds”.

B3: mvaT BS1 mutant (ssRNA)
RNA: GGGAUAAUACUUACAUGCCCGCCACCGCCACUCAGCACAGACAAGGUACCUGACAUGUCCCUGAUCAACGAAUAUCGCGCCCACACAGAAGCCAUCAAGGAACUUCAGGAGCGCCUGAAGUCCCUGGAACAAGACGACAAACUGAAAAAAGAAC
Consider B3, for which the binding result was “binds”.

B4: mvaT BS3 mutant (ssRNA)
RNA: GGGAUAAUACUUACAUGCCCGCCACCGCCACUCAGCACAGACAAGGUACCUGACAUGUCCCUGAUCAACGAAUAUCGCGCCACGGAAGAAGCCAUCAAGGAACUUCAGGAGCGCCUGAAGUCCCUCUGACAAGACGACAAACUGAAAAAAGAAC
On to B4, for which the binding result was “binds”.

B5: mvaT BS2 mutant (ssRNA)
RNA: GGGAUAAUACUUACAUGCCCGCCACCGCCACUCAGCACAGACAAGGUACCUGACAUGUCCCUGAUCAACGAAUAUCGCGCCACGGAAGAAGCCAUCCAAUUACUUCAGGAGCGCCUGAAGUCCCUGGAACAAGACGACAAACUGAAAAAAGAAC
For the molecule B5, the binding result is given as “binds”.
